Results published in patent US20040170976A1, “Solubility reporter gene constructs” (priority 2000, published 2004).

B1: TM0556: T. maritima 3-isopropylmalate dehydrogenase (leuB) (protein, UniProt Q9WZ26 1-354, looked up)
3-isopropylmalate …: MKIAVLPGDGIGPEVVREALKVLEVVEKKTGKTFEKVFGHIGGDAIDRFGEPLPEETKKICLEADAIFLGSVGGPKWDDLPPEKRPEIGGLLALRKMLNLYANIRPIKVYRSLVHVSPLKEKVIGSGVDLVTVRELSYGVYYGQPRGLDEEKGFDTMIYDRKTVERIARTAFEIAKNRRKKVTSVDKANVLYSSMLWRKVVNEVAREYPDVELTHIYVDNAAMQLILKPSQFDVILTTNMFGDILSDESAALPGSLGLLPSASFGDKNLYEPAGGSAPDIAGKNIANPIAQILSLAMMLEHSFGMVEEARKIERAVELVIEEGYRTRDIAEDPEKAVSTSQMGDLICKKLEEIW
B2: TM0688: T. maritima glyceraldehyde-3-phosphate dehydrogenase (gap) (protein, UniProt P17721 2-333, looked up)
Glyceraldehyde-3-phosphate …: ARVAINGFGRIGRLVYRIIYERKNPDIEVVAINDLTDTKTLAHLLKYDSVHKKFPGKVEYTENSLIVDGKEIKVFAEPDPSKLPWKDLGVDFVIESTGVFRNREKAELHLQAGAKKVIITAPAKGEDITVVIGCNEDQLKPEHTIISCASCTTNSIAPIVKVLHEKFGIVSGMLTTVHSYTNDQRVLDLPHKDLRRARAAAVNIIPTTTGAAKAVALVVPEVKGKLDGMAIRVPTPDGSITDLTVLVEKETTVEEVNAVMKEATEGRLKGIIGYNDEPIVSSDIIGTTFSGIFDATITNVIGGKLVKVASWYDNEYGYSNRVVDTLELLLKM
B3: TM0574: T. maritima S-adenosylmethionine tRNA ribosyltransferase (queA) (protein, UniProt Q9WZ44 1-335, looked up)
S-adenosylmethionine:tRNA …: MKVSEFDYELPPELIAQEPVEPRDASRLMVLHRKTQRIEHRIFREIIEYLEPGDLLVLNVSKVIPARLYARKKTGASIEILLIERLEEGIWKCLVRPGQKVKKGTELVIDEDLSAVCLGRGEDGTRILKFQPQDDRLIFEKGRTPLPPYIKNEVPLERYQTVYAKEEGSVAAPTAGLHFTPELIEKLKKKGVQFAEVVLHVGIGTFRPVKVEEVEKHKMHEEFYQVPKETVRKLRETRERGNRIVAVGTTTVRTLETIARLPEQEEYVGKTDLFIYPPFEFKLVDALVTNFHLPRSTLLMLVAAFAGKDFVMEAYREAVKRRYRFFSFGDAMLIL
B4: TM0294: T. maritima glutamate 5-kinase (proB) (protein, UniProt Q9WYD0 1-353, looked up)
Glutamate 5-kinase: MIMKVVVKVGSNLLVGSSGLRKSYIAELCREVARLKSQGHEISIITSGARAAGFTYLGKGKRTQDLHIKQALCAVGQVQLMKVYENAFDFYGIKIAQILLTRDTFSNRKRYLNLRNTLIGLSEFDVVPIVNENDTVATEEITLGDNDTLAAMFSIAWDADFLVLFTTVDGVIDENGKLVERFDESVKLKDMGKSSWGTGGIRSKIESALMASRCGVKATICSGNDVSNLTRFVKGEPVGTVFEPQGRLKAKKAWIAFLSEPAGKIYVNKGAEEALKSGNSLLPVGVTGVEGTFDVGDVVEIVNEEGELVGRGIVNYSSSDLEKIAGHKSSDLKKILGYEGNKVVVHIDNMWVA

Test: Fractionation of soluble and insoluble recombinant protein by cell lysis and centrifugation / SDS-PAGE
Type: physicochemical
Details: T. maritima proteins expressed in E. coli; SDS-PAGE of soluble and insoluble fractions
Experimental: E. coli strains MG1655 (F^−lam rph1) and KY1429 (F- araD139 Δ(argF-lac)169 lam flhD5301 fruA25 relA1 rpsL150 zhh50::Tn10 rpoH606(ts) deoC1) were transformed with expression plasmids encoding M36881 (LCK) or M86400 (PLA) for expression profiling. Cells were cultured at 37° C. in Luria Broth containing ampicillin. Protein expression was induced by addition of L-arabinose to a final concentration of 0.1% for 1 hour. KY1429 cells were cultured as above except initial growth was performed at 32° C. followed by a shift to 42° C. for non-permissive expression of rpoH606. Top10 cells (F^−-mcrA Δ(mrr-hsdRMS-mcrBC) φ80lacZΔM15 ΔlacX74 deoR recA1 araD139 Δ(ara-leu)7697 galU galK rpsL endA1 nupG) containing the ibpAB promoter fusion (pHK57), were transformed with expression constructs listed above. Beta-galactosidase assays were performed essentially as described by Miller (24). Fractionation of soluble and insoluble proteins was performed by centrifugation. Cultures were resuspended in 50 mM Tris pH 7.9, 50 mM NaCl, 1 mM MgCl2, 3 mM methionine and sonicated for 2 minutes on ice. Cell debris and insoluble protein aggregates were pelleted by centrifugation at 3000×g for 15 minutes. The soluble fraction was removed and the pellets resuspended in an equivalent volume of lysis buffer.

For B1, which pre-determined expression characteristics is on record?
The pre-determined expression characteristics was “Soluble”.

With B2 as the molecule, how does the pre-determined expression characteristics read?
The pre-determined expression characteristics was “Insoluble”.

Which pre-determined expression characteristics does the source give for B3 here?
Its pre-determined expression characteristics is “Soluble”.

Test: pI of T. maritima proteins
Type: physicochemical, Thermotoga maritima
Details: not given

For B1, which pI is on record?
The pI was 5.44.

With B2 as the molecule, how does the pI read?
Its pI is 6.21.

With B4 as the molecule, how does the pI read?
Its pI is 6.92.

Which pI does the source give for B3 here?
The pI was 8.61.
